{"source": "patent US20220348652A1", "about": "(ANTAIMMU BIOMED, published 2022)", "key": {"[1]": {"target": "T1, human CD47 expressed on CHO-CD47 cells (human, UniProt Q08722 19-323)", "T1 construct": "whole, on cells; also called cellular CD47; full-length CD47", "assay": "flow cytometry, IgG on CHO-CD47 cells", "description": "The anti-CD47 scFvs were respectively expressed in their IgG formats in accordance with the procedure described in Materials and Methods. CHO cells expressing CD47 (CHO-CD47 cells) and wild-type CHO cells (CHO-WT cells) were respectively treated with anti-CD47 IgGs. After washing, the binding of the anti-CD47 IgGs was detected using a polyclonal APC-conjugated anti-human IgG antibody. Relative MFI was measured by flow cytometry. Antibody R23, a reference antibody constructed according to the sequences of ADI29341 disclosed in US20200181259A1, served as a positive control in this study."}, "[2]": {"target": "T1, human CD47 expressed on CHO-CD47 cells", "assay": "flow cytometry on CHO-CD47 cells (MFI, FIG. 2)", "description": "The binding of the anti-CD47 scFvs to the surface of CHO-CD47 cells was determined by flow cytometry, and the data was expressed as mean fluorescence intensity (MFI)."}, "[3]": {"target": "T2, human CD47 polypeptide (Met1-Pro139 of human CD47 fused with a Fc region) (human, UniProt Q08722 19-139)", "T2 construct": "range 1-139; Made in HEK293 cells and purified from the supernatant; also called CD47 protein; not shown: Fc region", "assay": "single colony ELISA, scFv supernatant on coated CD47 polypeptide", "description": "Phages were infected into E. coli host cells followed by plating the infected E. coli cells on agar plate. Each colony was picked up and cultured in 2×YT (yeast extract tryptone) medium containing 100 μg/ml ampicillin with vigorous shacking at 37° C. After OD₆₀₀ of the culture was greater than 1, isopropyl β-d-1-thiogalactopyranoside (IPTG) was added to each culture and the final concentration of IPTG was 1 mM. The cultures were incubated at 37° C. overnight, and then centrifuged 4,000×g for 10 minutes. The scFvs were secreted and collected from the supernatant. The collected scFvs were added onto a 96-well plate coated with CD47 polypeptide followed by the analysis of ELISA so as to determining the binding affinity of the selected scFvs and CD47 polypeptide."}, "[4]": {"target": "T2, human CD47 polypeptide (Met1-Pro139 of …)", "assay": "ELISA on coated CD47 polypeptide (FIG. 1)"}}, "data": [{"binder": "Antibody R23 (antibody, from another filing, V domains shown) VH: QVQLQESGPGLVKPSETLSLTCTVSGGSIEHYYWSWIRQPPGKGLEWIGYIYYSGSTNYNPSLKSRVTISVDTSKNQFSLKLSSVTAADTAVYYCARGKTGSAAWGQGTLVTVSS VL: DIQMTQSPSSVSASVGDRVTITCRASQGISRWLAWYQQKPGKAPKLLIYAASSLQSGVPSRFSGSGSGTDFTLTISSLQPEDFATYYCQQTVSFPITFGGGTKVEIKR", "values": [{"measurement": "EC50", "setting": "[1]", "value": 4.18, "unit": "µg/mL"}]}, {"binder": "scFv CD47-20 (scFv, V domains shown, scFv) VL: DIQMTQSPSSLSASVGDRVTITCRASQDVHNKVAWYQQKPGKAPKLLIYYTSNLYSGVPSRFSGSGSGTDFTLTISSLQPEDFATYYCQQHFTYPLTFGQGTKVEIKR VH: EVQLVESGGGLVQPGGSLRLSCAASGFTISNYYIHWVRQAPGKGLEWVAGIWPSGGSTSYADSVKGRFTISADTSKNTAYLQMNSLRAEDTAVYYCTRGGYAMDYWGQGTLVTVSS", "values": [{"measurement": "binding result", "setting": "[2]", "value": "binds"}, {"measurement": "binding result", "setting": "[3]", "value": "binds"}]}, {"binder": "scFv CD47-22 (scFv, V domains shown, scFv) VL: DIQMTQSPSSLSASVGDRVTITCRASQDVHSWVAWYQQKPGKAPKLLISRATWLASGVPSRFSGSGSGTDFTLTISSLQPEDFATYYCQQSSNFPLTFGQGTKVEIKR VH: EVQLVESGGGLVQPGGSLRLSCAASGFTINDYGIHWVRQAPGKGLEWVAGIGPFWGSTFYADSVKGRFTISADTSKNTAYLQMNSLRAEDTAVYYCARWMWGRWSAMDYWGQGTLVTVSS", "values": [{"measurement": "binding result", "setting": "[2]", "value": "binds"}, {"measurement": "binding result", "setting": "[3]", "value": "binds"}]}, {"binder": "scFv CD47-27 (scFv, V domains shown, scFv) VL: DIQMTQSPSSLSASVGDRVTITCRASQDVHNGVAWYQQKPGKAPKLLIFRTSWLLSGVPSRFSGSGSGTDFTLTISSLQPEDFATYYCQQGSSFPFTFGQGTKVEIKR VH: EVQLVESGGGLVQPGGSLRLSCAASGFTINNYWIHWVRQAPGKGLEWVARISPFDGGTYYADSVKGRFTISADTSKNTAYLQMNSLRAEDTAVYYCARGGYAMDLWGQGTLVTVSS", "values": [{"measurement": "binding result", "setting": "[2]", "value": "binds"}, {"measurement": "binding result", "setting": "[3]", "value": "binds"}]}, {"binder": "scFv CD47-28 (scFv, V domains shown, scFv) VL: DIQMTQSPSSLSASVGDRVTITCRASQDVHGKVAWYQQKPGKAPKLLIYYARNLYSGVPSRFSGSGSGTDFTLTISSLQPEDFASYYCQQYFNFPLTFGQGTKVEIKR VH: EVQLVESGGGLVQPGGSLRLSCAASGFTITNWWIHWVRQAPGKGLEWVAEINPFGGNTYYADSVKGRFTISADTSKNTAYLQMNSLRAEDTAVYYCTRGGYAMDYWGQGTLVTVSS", "values": [{"measurement": "binding result", "setting": "[2]", "value": "binds"}, {"measurement": "binding result", "setting": "[3]", "value": "binds"}]}, {"binder": "scFv CD47-6 (scFv, V domains shown, scFv) VL: DIQMTQSPSSLSASVGDRVTITCRASQDVSSRVAWYQQKPGKAPKLLIYYTSNLYSGVPSRFSGSGSGTDFTLTISSLQPEDFATYYCQQHFNYPLTFGQGTKVEIKR VH: EVQLVESGGGLVQPGGSLRLSCAASGFTITNWWIHWVRQAPGKGLEWVATISPYSGDTHYADSVKGRFTISADTSKNTAYLQMNSLRAEDTAVYYCARGGYAMDHWGQGTLVTVSS", "values": [{"measurement": "binding result", "setting": "[4]", "value": "binds"}, {"measurement": "binding result", "setting": "[2]", "value": "binds"}]}, {"binder": "scFv CD47-9 (scFv, V domains shown, scFv) VL: DIQMTQSPSSLSASVGDRVTITCRASQDVSNRVAWYQQKPGKAPKLLIYGTNRLYTGVPSRFSGSGSGTDFTLTISSLQPEDFATYYCQQHFNYPITFGQGTKVEIKR VH: EVQLVESGGGLVQPGGSLRLSCAASGFTINSWWIHWVRQAPGKGLEWVAKISPFNGDTHYADSVKGRFTISADTSKNTAYLQMNSLRAEDTAVYYCARGGYAMDIWGQGTLVTVSS", "values": [{"measurement": "binding result", "setting": "[4]", "value": "binds"}, {"measurement": "binding result", "setting": "[2]", "value": "binds"}]}, {"binder": "scFv CD47-14 (scFv, V domains shown, scFv) VL: DIQMTQSPSSLSASVGDRVTITCRASQDVSTKVAWYQQKPGKAPKLLIYFTRNLYSGVPSRFSGSGSGTDFTLTISSLQPEDFATYYCQQHSNYPVTFGQGTKVEIKR VH: EVQLVESGGGLVQPGGSLRLSCAASGFTISNWWIHWVRQAPGKGLEWVAGISPYSGKTDYADSVKGRFTISADTSKNTAYLQMNSLRAEDTAVYYCARGGYAMDLWGQGTLVTVSS", "values": [{"measurement": "binding result", "setting": "[4]", "value": "binds"}, {"measurement": "binding result", "setting": "[2]", "value": "binds"}]}, {"binder": "scFv CD47-29 (scFv, V domains shown, scFv) VL: DIQMTQSPSSLSASVGDRVTITCRASQDVHSKVAWYQQKPGKAPKLLIYSTNRLYPGVPSRFSGSGSGTDFTLTISSLQPEDFATYYCQQHFTYPLTFGQGTKVEIKR VH: EVQLVESGGGLVQPGGSLRLSCAASGFTITNWWIHWVRQAPGKGLEWVAGITPYSGDTYYADSVKGRFTISADTSKNTAYLQMNSLRAEDTAVYYCARGGYAIDNWGQGTLVTVSS", "values": [{"measurement": "binding result", "setting": "[2]", "value": "binds"}, {"measurement": "binding result", "setting": "[3]", "value": "binds"}]}, {"binder": "scFv CD47-31 (scFv, V domains shown, scFv) VL: DIQMTQSPSSLSASVGDRVTITCRASQDVHSKVAWYQQKPGKAPKLLIYSTNRLYSGVPSRFSGSGSGTDFTLTISSLQPEDFATYYCQQHSNYPVTFGQGTKVEIKR VH: EVQLVESGGGLVQPGGSLRLSCAASGFTISNWWIHWVRQAPGKGLEWVAAINPFNGRTDYADSVKGRFTISADTSKNTAYLQMNSLRAEDTAVYYCTRGGYAMDYWGQGTLVTVSS", "values": [{"measurement": "binding result", "setting": "[2]", "value": "binds"}, {"measurement": "binding result", "setting": "[3]", "value": "binds"}]}, {"binder": "scFv CD47-32 (scFv, V domains shown, scFv) VL: DIQMTQSPSSLSASVGDRVTITCRASQDVHYTVAWYQQKPGKAPKLLIYGTNRLYTGVPSRFSGSGSGTDFTLTISSLQPEDFATYYCQQHFNFPITFGQGTKVEIKR VH: EVQLVESGGGLVQPGGSLRLSCAASGFTINNFWIHWVRQAPGKGLEWVANISPFTGDTRYADSVKGRFTISADTSKNTAYLQMNSLRAEDTAVYYCARGGYAMDIWGQGTLVTVSS", "values": [{"measurement": "binding result", "setting": "[2]", "value": "binds"}, {"measurement": "binding result", "setting": "[3]", "value": "binds"}]}, {"binder": "scFv CD47-3 (scFv, V domains shown, scFv) VL: DIQMTQSPSSLSASVGDRVTITCRASQDVSNRVAWYQQKPGKAPKLLISRANGLASGVPSRFSGSGSGTDFTLTISSLQPEDFATYYCQQGSHFPITFGQGTKVEIKR VH: EVQLVESGGGLVQPGGSLRLSCAASGFTISNWWIHWVRQAPGKGLEWVAHIGPTVGKTYYADSVKGRFTISADTSKNTAYLQMNSLRAEDTAVYYCARGGFAMDHWGQGTLVTVSS", "values": [{"measurement": "binding result", "setting": "[2]", "value": "binds"}, {"measurement": "binding result", "setting": "[3]", "value": "binds"}]}, {"binder": "scFv CD47-4 (scFv, V domains shown, scFv) VL: DIQMTQSPSSLSASVGDRVTITCRASQSVDNGVAWYQQKPGKAPKLLIYSATRLYPGVLSRFSGSGSGTDFTLTISSLQPEDFATYYCQQSSTFPLTFGQGTKVEIKR VH: EVQLVESGGGLVQPGGSLRLSCAASGFTINDYWIHWVRQAPGKGLEWVAHIWPTYGGTHYADSVKGRFTISADTSKNTAYLQMNSLRAEDAAVYYCARGGYSLDIWGQGTLVTVSS", "values": [{"measurement": "binding result", "setting": "[4]", "value": "binds"}, {"measurement": "binding result", "setting": "[2]", "value": "binds"}]}, {"binder": "scFv CD47-5 (scFv, V domains shown, scFv) VL: DIQMTQSPSSLSASVGDRVTITCRASQDVHNKVAWYQQKPGKAPKLLIYSATRLYPGVPSRFSGSGSGTDFTLTISSLQPEDFATYYCQQHFNYPLTFGQGTKVEIKR VH: EVQLVESGGGLVQPGGSLRLSCAASGFTITNYWIHWVRQAPGKGLEWVAHIWPGVGDTDYADSVKGRFTISADTSKNTAYLQMNSLRAEDTAVYYCARGGFAMDLWGQGTLVTVSS", "values": [{"measurement": "binding result", "setting": "[4]", "value": "binds"}, {"measurement": "binding result", "setting": "[2]", "value": "binds"}]}, {"binder": "scFv CD47-8 (scFv, V domains shown, scFv) VL: DIQMTQSPSSLSASVGDRVTITCRASQDVHYAVAWYQQKPGKAPKLLIYGTNRLYPGVPSRFSGSGSGTDFTLTISSLQPEDFATYYCQQHSNFPLTFGQGTKVEIKR VH: EVQLVESGGGLVQPGGSLRLSCAASGFTINNFYIHWVRQAPGKGLEWVASIWPWSGETGYADSVKGRFTIGADTSKNTAYLQMNSLRAEDTAVYYCARGGFAMDFWGQGTLVTVSS", "values": [{"measurement": "binding result", "setting": "[4]", "value": "binds"}, {"measurement": "binding result", "setting": "[2]", "value": "binds"}]}, {"binder": "CD47-2 IgG (antibody, V domains shown, IgG made in CHO cells from the scFv; The VL-CL junction was not checked (VL ends in ...EIKR); also called antibody CD47-2) VH: EVQLVESGGGLVQPGGSLRLSCAASGFTISNSFIHWVRQAPGKGLEWVAYIWPWSGSTGYADSVKGRFTISADTSKNTAYLQMNSLRAEDTAVYYCARGGFSMDHWGQGTLVTVSS VL: DIQMTQSPSSLSASVGDRVTITCRASQDVSSKVAWYQQKPGKAPKLLIYGTNRLYPGVPSRFSGSGSGTDFTLTISSLQPEDFATYYCQQSSNYPLTFGQGTKVEIKR", "values": [{"measurement": "EC50", "setting": "[1]", "value": 2.34, "unit": "µg/mL"}]}, {"binder": "CD47-7 IgG (antibody, V domains shown, IgG made in CHO cells; constant domains as for m19; also called antibody CD47-7) VH: EVQLVESGGGLVQPGGSLRLSCAASGFTITNYYIHWVRQAPGKGLEWVASIWPGYGNTGYADSVKGRFTISADTSKNTAYLQMNSLRAEDTAVYYCARGGYSMDFWGQGTLVTVSS VL: DIQMTQSPSSLSASVGDRVTITCRASQDVYTRVAWYQQKPGKAPKLLIYYTRNLYSGVPSRFSGSGSGTDFTLTISSLQPEDFATYYCQQAANYPLTFGQGTKVEIKR", "values": [{"measurement": "EC50", "setting": "[1]", "value": 2.44, "unit": "µg/mL"}]}]}
